# From FireProtDB (doi:10.1021/bi201253b)
# B1: H116A, A5H7H0 (parent)
# chain: MQLQNFLSIVLLVVSGAIAGTVMDHDKIAKLPASGSPLETKFQPQLHIGNGCHSYPAVDAQGNWSGGLKPTGAPSAACKDTSKAQTYVRSATFQGKTALVYAWYMPKDEISTGIGHRHDWEGAVVFLNSDTQQIDGVAASAHGKWRKYPNPGGANIDDTHVKLQYSAEPVINSHALDLTDKGGDLPTLASWEGMGADARAAINERSHWGDANPPIADSLIGSSLSGAWMW
# Variants of: B1
# Conditions: Moniliophthora perniciosa; pH 7.2; Thermal; CD; sodium phosphate buffer 4mM; EDTA CaCl2 with ZnCl2 62.5 micro M 120 micro M 120 micro M; structure 3ST1; whole UniProt chain shown
variant,measurement,value
MQLQNFLSIVLLVVSGAIAGTVMDHDKIAKLPASGSPLETKFQPQLHIGNGCHSYPAVDAQGNWSGGLKPTGAPSAACKDTSKAQTYVRSATFQGKTALVYAWYMPKDEISTGIGARHDWEGAVVFLNSDTQQIDGVAASAHGKWRKYPNPGGANIDDTHVKLQYSAEPVINSHALDLTDKGGDLPTLASWEGMGADARAAINERSHWGDANPPIADSLIGSSLSGAWMW [H116A],Tm,40.4 °C
same,"change of melting temperature, mutant - wild type (higher = more stable)",0.4 °C
MQLQNFLSIVLLVVSGAIAGTVMDHDKIAKLPASGSPLETKFQPQLHIGNGCHSYPAVDAQGNWSGGLKPTGAPSAACKDTSKAQTYVRSATFQGKTALVYAWYMPKDEISTGIGSRHDWEGAVVFLNSDTQQIDGVAASAHGKWRKYPNPGGANIDDTHVKLQYSAEPVINSHALDLTDKGGDLPTLASWEGMGADARAAINERSHWGDANPPIADSLIGSSLSGAWMW [H116S],Tm,39.9 °C
same,"change of melting temperature, mutant - wild type (higher = more stable)",-0.07 °C
MQLQNFLSIVLLVVSGAIAGTVMDHDKIAKLPASGSPLETKFQPQLHIGNGCHSYPAVDAQGNWSGGLKPTGAPSAACKDTSKAQTYVRSATFQGKTALVYAWYMPKDEISTGIGHRHKWEGAVVFLNSDTQQIDGVAASAHGKWRKYPNPGGANIDDTHVKLQYSAEPVINSHALDLTDKGGDLPTLASWEGMGADARAAINERSHWGDANPPIADSLIGSSLSGAWMW [D119K],Tm,40.2 °C
same,"change of melting temperature, mutant - wild type (higher = more stable)",0.25 °C
MQLQNFLSIVLLVVSGAIAGTVMDHDKIAKLPASGSPLETKFQPQLHIGNGCHSYPAVDAQGNWSGGLKPTGAPSAACKDTSKAQTYVRSATFQGKTALVYAWYMPKDEISTGIGHRHDWEGAVVFLNSDTQQIDGVAASAHGKWRKYPNPGGANIDDTHVKLQYSAEPVINSHALDLTDKGGDLPTLASWEGMGADARAAINERSHWGSANPPIADSLIGSSLSGAWMW [D210S],Tm,38.7 °C
same,"change of melting temperature, mutant - wild type (higher = more stable)",-1.25 °C
MQLQNFLSIVLLVVSGAIAGTVMDHDKIAKLPASGSPLETKFQPQLHIGNGCHSYPAVDAQGNWSGGLKPTGAPSAACKDTSKAQTYVRSATFQGKTALVYAWYMPKDEISTGIGHRHDWEGAVVFLNSDTQQIDGVAASAHGKWRKYPNPGGANIDDTHVKLQYSAEPRINSHALDLTDKGGDLPTLASWEGMGADARAAINERSHWGDANPPIADSLIGSSLSGAWMW [V170R],Tm,37.7 °C
same,"change of melting temperature, mutant - wild type (higher = more stable)",-2.26 °C
